{
  "source": "patent US20140057253",
  "about": "“METHOD TO PREDICT THE PATTERN OF LOCOMOTION IN HORSES” (CAPILET GENETICS AB, published 2014)",
  "binders": {"B1": {"name": "DMRT-binding motif oligonucleotide (dsDNA)", "DNA 1": "GGATCCTCGAGAACAATGTAACAATTTCGCCC", "DNA 2": "GGGCGAAATTGTTACATTGTTCTCGAGGATCC"}},
  "key": {"[1]": {"target": "DMRT3 wild-type (Equus caballus, UniProt F6W2R2 SEQ:1-474)", "sequence (F6W2R2 whole entry A151D)": "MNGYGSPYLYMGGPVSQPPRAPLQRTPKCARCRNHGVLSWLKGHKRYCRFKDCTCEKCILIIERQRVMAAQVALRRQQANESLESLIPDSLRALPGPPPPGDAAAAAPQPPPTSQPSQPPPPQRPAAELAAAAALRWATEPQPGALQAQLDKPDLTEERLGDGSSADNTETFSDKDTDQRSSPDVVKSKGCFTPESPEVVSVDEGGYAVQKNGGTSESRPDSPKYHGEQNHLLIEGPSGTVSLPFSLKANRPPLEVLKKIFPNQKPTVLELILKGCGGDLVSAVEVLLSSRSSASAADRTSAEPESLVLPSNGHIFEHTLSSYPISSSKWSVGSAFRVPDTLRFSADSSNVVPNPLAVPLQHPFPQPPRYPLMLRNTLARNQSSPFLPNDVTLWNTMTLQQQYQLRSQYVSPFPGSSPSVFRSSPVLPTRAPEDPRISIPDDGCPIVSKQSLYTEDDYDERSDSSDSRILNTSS", "assay": "EMSA; 150x cold competitor used; on ice 20 min then room temperature 30 min", "conditions": "tags: myc; label: 32P (Klenow fill-in with alpha-32P-dCTP)", "experimental": "(§1) The oligonucleotide 5′-ggatcc[…]-3′ and its complementary sequence were annealed in 10 mM Tris pH 7.5, 1 mM EDTA, 50 mM KCl by firstly heating to 95° C. for 2 min and thereafter cooled to 25° C. (2 min/degree). The duplex was labelled with Klenow DNA polymerase and [α-32P]-dCTP and purified using a Bio-Rad Micro Bio-Spin 30 column. DMRT3 wild type and mutant protein were produced by in vitro-translation using a TNT Quick Coupled Transcription/Translation System (Promega). EMSA was performed as described by Culbertson & Leeds, 2003 (Looking at mRNA decay pathways through the window of molecular evolution. Curr. Opin. Genet. Dev. 13, 207-214) with the following modifications. No plasmid DNA was added and 1.0 μl in vitro-translated protein and 150× cold competitor were used. The reaction mixture was incubated on ice for 20 min before adding the radioactive oligo and thereafter incubated at room temperature for 30 min. Gels were run at 150 V in room temperature. […] It may therefore be a dominant negative form with normal DNA-binding but defective interaction with other proteins. This would be consistent with the clear phenotypic effects observed in heterozygotes. However, the mutation is not fully dominant as CA heterozygotes and AA homozygotes show distinct phenotypic differences."}, "[2]": {"target": "DMRT3 Ser301STOP mutant (truncated, 300 aa) (Equus caballus, UniProt J7FCF0 SEQ:1-300)", "sequence (J7FCF0 other isoform, or with tags, fused parts or gaps mutant)": "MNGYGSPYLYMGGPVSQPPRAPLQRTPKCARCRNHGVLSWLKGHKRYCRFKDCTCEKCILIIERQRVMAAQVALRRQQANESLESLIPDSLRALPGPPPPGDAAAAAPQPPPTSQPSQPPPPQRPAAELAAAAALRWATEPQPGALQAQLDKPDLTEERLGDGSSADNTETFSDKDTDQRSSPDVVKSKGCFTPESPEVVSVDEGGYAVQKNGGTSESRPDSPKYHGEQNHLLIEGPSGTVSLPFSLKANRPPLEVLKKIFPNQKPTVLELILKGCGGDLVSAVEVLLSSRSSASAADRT", "assay": "EMSA; 150x cold competitor used; on ice 20 min then room temperature 30 min; truncation retains DNA binding", "conditions": "tags: myc; label: 32P (Klenow fill-in with alpha-32P-dCTP)", "experimental": "as §1"}},
  "data": [
    {"binder": "B1", "values": [
      {"measurement": "binding result", "setting": "[1]", "value": "binds"},
      {"measurement": "binding result", "setting": "[2]", "value": "binds"}
    ]}
  ]
}
